{"source": "paper doi:10.1101/2023.01.25.525508", "key": {"[1]": {"target": "T1, TIA1 full-length (fl TIA1) (Mus musculus, UniProt P52912 1-386)", "T1 sequence": "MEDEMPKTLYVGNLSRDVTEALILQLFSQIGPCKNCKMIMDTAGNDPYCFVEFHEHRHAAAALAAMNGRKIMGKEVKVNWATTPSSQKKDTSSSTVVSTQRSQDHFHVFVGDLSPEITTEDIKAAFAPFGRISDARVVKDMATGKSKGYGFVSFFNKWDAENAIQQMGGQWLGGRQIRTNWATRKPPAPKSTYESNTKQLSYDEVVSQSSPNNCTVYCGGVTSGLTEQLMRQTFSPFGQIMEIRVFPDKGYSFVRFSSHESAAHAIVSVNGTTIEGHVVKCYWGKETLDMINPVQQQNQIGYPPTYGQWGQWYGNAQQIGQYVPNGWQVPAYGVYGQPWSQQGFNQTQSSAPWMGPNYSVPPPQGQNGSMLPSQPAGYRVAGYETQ", "test": "solid-state NMR"}, "[2]": {"target": "T1, TIA1 full-length (fl TIA1)", "test": "ITC"}}, "data": [{"binder": "TTTTTACTCCAAAAAAAATTTTTACTCCAAAAAAAATTTTTACTCC (ssDNA)", "note": "[(TC1-A8)2-TC1]", "values": [{"measurement": "binding result", "setting": "[1]", "result": "binds"}]}, {"binder": "TTTTTACTCC (ssDNA)", "note": "[TC1]", "values": [{"measurement": "Kd", "setting": "[2]", "result": "263 ± 60", "unit": "nM"}]}]}
